Assay results reported in publication PMC2987830.

Columns and labels:
[1] = biological target: FcγRIa of RAW 264.7 cells (mouse (endogenous in RAW 264.7)) (UniProt P26151)
[2] = biological target: C-terminal truncated Myc-hFcγRIa which lacks the cytoplasmic tail (human) (UniProt P12314); assay: adhesion of bacteria to transfected cells (total cell associated bacteria); COS-1 monolayers transfected with Myc-hFcγRIa, Myc-hFcγRIa-CT, Myc-hFcγRII or pcDNA3 (mock); E. coli K1 at an MOI of 100, 1.5 h, 37°C; cell associated bacteria plated
UniProt P12314, sequence (P12314 16-314): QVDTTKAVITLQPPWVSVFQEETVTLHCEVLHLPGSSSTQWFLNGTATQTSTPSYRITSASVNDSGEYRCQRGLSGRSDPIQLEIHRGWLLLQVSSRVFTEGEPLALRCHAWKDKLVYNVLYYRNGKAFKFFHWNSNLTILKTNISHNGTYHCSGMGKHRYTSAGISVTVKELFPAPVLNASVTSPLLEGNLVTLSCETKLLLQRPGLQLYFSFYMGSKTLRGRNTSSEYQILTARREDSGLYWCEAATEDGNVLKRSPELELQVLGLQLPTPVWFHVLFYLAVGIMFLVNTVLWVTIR

UniProt P26151, sequence (P26151 25-404): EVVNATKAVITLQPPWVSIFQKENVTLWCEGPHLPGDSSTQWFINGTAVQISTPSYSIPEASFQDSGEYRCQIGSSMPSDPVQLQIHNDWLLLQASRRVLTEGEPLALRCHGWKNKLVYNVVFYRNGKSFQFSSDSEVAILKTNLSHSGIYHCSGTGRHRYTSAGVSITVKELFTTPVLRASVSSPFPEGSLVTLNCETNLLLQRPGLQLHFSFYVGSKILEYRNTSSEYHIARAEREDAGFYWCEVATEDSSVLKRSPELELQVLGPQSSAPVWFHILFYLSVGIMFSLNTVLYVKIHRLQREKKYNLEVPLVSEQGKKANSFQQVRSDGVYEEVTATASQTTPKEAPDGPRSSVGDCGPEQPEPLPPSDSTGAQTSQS

## outer membrane protein A (OmpA) of E. coli K1 (from UniProt P0A910 22-346) (natural protein)
[1]
  reduction of intracellular E. coli K1 in RAW 264.7 cells (gentamicin protection assay) by Fab fragments of anti-OmpA antibody or by anti-FcγRI antibody: 80%
[2]
  decrease of bacterial binding against Myc-hFcγRIa+/COS-1 cells: 30%
